Test results: the supplement of paper PMC10567573

B1: ZNF263 (parent)
chain: HLTRHQRTHTGEKPYKCTLCGENF
B2: SMAD6 (parent)
chain: SGLVRRLWRSRVVPDREEGGSGGG

Variants of: B1
Assay: protein stability index of a GFP-peptide fusion (GPS, HEK-293T) (PSI 1-6); higher = more stable
Conditions: c terminus: a fixed tail appended
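Also: lentivirally expressed fusions sorted by FACS into six bins by GFP to DsRed ratio, PSI derived from sequencing read proportions per bin multiplied by bin number.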

Protein stability index, by site and new letter:
N23: D 3.33, E 2.75, H 1.98, M 2.3, W 2.57, G 4.03, Q 2.63, Y 2.53, F 2.33, I 2.57, P 2.54, V 1.85, C 3.13, S 2.7, K 3.22, A 2.68, L 2.34, R 3.08, T 2.83
Y15: N 3.29, M 3.18, G 3.29, S 3.48, E 3.69, V 3.22, Q 3.44, C 4.52, F 3.31, W 2.46, T 3, L 2.81, A 3.23, K 3.11, I 2.85, H 3.24, R 2.93, D 4.21, P 3.1
E22: R 2.29, G 2.31, A 2.54, S 2.9, T 2.58, W 2.13, D 3.33, V 2.17, Q 2.38, K 2.36, Y 2.39, I 2.75, H 3.43, M 2.31, N 2.69, F 1.95, L 2.08, P 2.95, C 2.29
C17: I 2.21, S 3.4, Y 3.05, R 2.98, N 3.1, E 3.96, G 3.52, K 3.71, T 3.06, D 3.73, L 2.68, Q 3.46, V 3.7, P 3.37, M 2.81, F 2.44, A 3.24, H 2.89
K16: H 2.91, W 2.78, I 2.97, P 3.32, V 2.3, T 2.9, G 3.19, L 2.33, A 3.72, S 3.19, M 3.17, Y 2.52, R 2.87, E 3.82, C 2.83, D 3.74, F 2.7, Q 3.17, N 2.82
G21: A 3.27, R 2.46, D 3.26, M 3.06, H 3.46, T 2.7, Y 2.97, E 3.58, S 2.99, N 3.02, Q 2.85, K 3.42, V 2.26, I 2.41, L 2.58, F 2.43, P 2.68, C 2.73, W 2.23
L19: S 3.14, V 2.86, P 2.7, I 3.15, K 3.7, F 2.62, Y 2.39, E 3.36, N 3.68, H 2.94, Q 2.98, T 3.64, W 2.75, G 2.56, M 2.83, R 3.03, D 3.84, A 3.23, C 3.88
P14: S 2.79, E 3.21, Q 3.14, V 2.77, R 2.9, C 2.52, D 3.65, W 3.26, T 2.88, L 3.14, A 2.79, N 2.92, Y 3.04, G 3.58, I 2.9, K 3.31, M 2.63, F 2.78, H 3.01
C20: P 2.53, A 2.89, E 4.11, W 2.56, Y 2.77, H 2.66, Q 3.44, S 3.23, R 3.03, T 3.93, K 3.12, N 3.25, L 2.61, F 2.25, D 3.69, V 3.07, M 2.93, G 2.92, I 2.57
T18: K 2.98, I 2.36, C 2.54, M 2.42, V 2.42, L 2.49, R 2.68, D 2.75, W 2.54, G 2.45, F 2.56, Y 3.09, A 2.94, N 2.81, Q 2.68, E 3.78, H 2.65, S 2.84, P 2.4
F24: M 3.58, D 4.62, C 4.06, Y 2.9, I 3.02, T 3.85, A 4.22, S 4.49, K 3.12, Q 2.88, E 4.08, H 3.46, W 3.08, L 3.44, R 3.13, P 3.14, G 3.67, V 3.47, N 3.7
K13: S 3.24, T 3.54, G 2.92, L 2.03, E 3.64, V 2.69, W 2.5, R 2.98, Y 2.74, M 2.56, P 2.88, I 2.13, F 2.65, N 3.16, H 2.9, Q 3.6

Variants of: B2
Assay: as above
Conditions: c terminus: a fixed tail appended

Protein stability index: each site, then its substitutions
S21: V 3.37, W 2.9
R11: T 4.68, I 2.63, W 2.22, K 4.15
P14: K 4.3, Y 3.02, L 3.18, N 3.77, D 2.83
R16: E 4.32, Q 3.67, L 3.34, N 4.37, I 3.76, W 3.25, S 4.7
S1: Q 5.24, M 2.45, C 2.09, W 2.61, H 3.81
R9: T 2.82, N 3.96, H 3.69
E18: C 2.94, N 2.42, A 2.9, Y 2.44, I 4.17, V 3.85, P 3.46
R6: S 3.29, M 2.93, H 4, A 3.27
E17: S 4.07, K 4.14, C 4.26, A 3.47, R 2.93, V 3.71, D 4.12, T 3.31
L3: N 4.73, S 4.38, W 4.17, Q 3.88
D15: P 3.62, K 3.35, I 2.75, T 4.33
W8: L 4.22, S 5.1
G2: H 4.14, A 2.15, D 2.93, L 3.51, N 4.17, S 4.17, W 2.29
G23: E 3.9, S 4.47, N 3.01, F 3.13, M 3.25, V 3.78
G22: C 3.04, A 3.84, E 4.04, F 2.98, I 3.87
R5: L 1.97, S 3.27, A 3.76
V13: D 4.88, W 3.37, F 3.32
G20: A 4, Q 3.96, L 2.74, V 2.44, F 2.82, W 1.99
V4: K 4.45, G 3.41, E 4.63
S10: H 2.24, A 3.76, N 3.89
V12: F 3.69, M 4.06, P 3.67, I 4.07, C 2.94, N 4.22
G24: T 4.01, H 2.83, E 4, C 4.91, F 2.44, Q 3.59, K 3.78
L7: H 3.55, Y 3.82, S 4, E 3.82
G19: A 4.28, M 3.35
